Publication PMC9287719 (2022)
Residue numbers refer to the chain shown, from its start. Where two headings read alike, the source gives them in different places.

Experiments:
[1] = target: T1, Recombinant FcγRIIa (H131) with C-terminus Biotin (human, UniProt P12318 34-217, C-terminus Biotin)
T1 chain: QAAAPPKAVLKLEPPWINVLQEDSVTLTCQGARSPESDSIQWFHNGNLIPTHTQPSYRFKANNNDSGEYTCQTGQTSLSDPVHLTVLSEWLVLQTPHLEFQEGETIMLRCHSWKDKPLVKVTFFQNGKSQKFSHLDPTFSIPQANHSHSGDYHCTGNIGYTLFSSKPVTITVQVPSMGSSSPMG

[2] = target: T2, Recombinant FcγRIIa (R131) with C-terminus Biotin (human, UniProt P12318, C-terminus Biotin)
T2 chain: T1 chain with H134R

[3] = target: T3, Recombinant FcγRIIb with C-terminus Biotin (human, UniProt P31994 43-217, C-terminus Biotin)
T3 chain: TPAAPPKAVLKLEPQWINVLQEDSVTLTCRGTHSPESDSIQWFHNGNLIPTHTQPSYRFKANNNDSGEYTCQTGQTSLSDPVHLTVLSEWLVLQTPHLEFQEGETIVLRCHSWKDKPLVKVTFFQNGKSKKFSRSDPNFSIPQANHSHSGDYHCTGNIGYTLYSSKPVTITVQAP

[4] = target: T4, Recombinant FcγRI with C-terminus Biotin (human, UniProt P12314 16-292, C-terminus Biotin)
T4 chain: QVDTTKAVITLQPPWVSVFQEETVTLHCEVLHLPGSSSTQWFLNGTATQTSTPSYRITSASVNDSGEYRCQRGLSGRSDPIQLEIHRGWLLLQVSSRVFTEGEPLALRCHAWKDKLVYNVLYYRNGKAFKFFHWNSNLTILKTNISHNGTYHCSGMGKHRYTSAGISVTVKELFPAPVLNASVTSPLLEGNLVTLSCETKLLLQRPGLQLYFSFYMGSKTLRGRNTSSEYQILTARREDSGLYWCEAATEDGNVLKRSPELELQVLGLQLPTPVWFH

[5] = target: Recombinant FcγRIIIa (F158) with C-terminus Biotin (human, UniProt P08637 17-208, C-terminus Biotin)
Sequence of Recombinant FcγRIIIa (F158) with C-terminus Biotin (P08637 17-208): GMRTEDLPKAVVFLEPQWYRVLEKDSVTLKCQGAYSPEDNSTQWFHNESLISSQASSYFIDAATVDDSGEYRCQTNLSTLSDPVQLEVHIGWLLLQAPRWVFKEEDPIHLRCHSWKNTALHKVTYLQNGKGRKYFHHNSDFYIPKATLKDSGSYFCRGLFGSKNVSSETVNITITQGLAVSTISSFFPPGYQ

[6] = target: T5, Recombinant FcγRIIIa (V158) with C-terminus Biotin (human, UniProt P08637, C-terminus Biotin)
T5 sequence (P08637 17-208 F176V): as the sequence (P08637 17-208) above, with F160V counted along it

[7] = target: T1, Recombinant FcγRIIa (H131) with …
[8] = target: T2, Recombinant FcγRIIa (R131) with …
[9] = target: T4, Recombinant FcγRI with C-terminus Biotin
[10] = target: T5, Recombinant FcγRIIIa (V158) with …; remark: listed apart in the source

B1: Infliximab (antibody)
chain 1: EVKLEESGGGLVQPGGSMKLSCVASGFIFSNHWMNWVRQSPEKGLEWVAEIRSKSINSATHYAESVKGRFTISRDDSKSAVYLQMTDLRTEDTGVYYCSRNYYGSTYDYWGQGTTLTVSS
chain 2: DILLTQSPAILSVSPGERVSFSCRASQFVGSSIHWYQQRTNGSPRLLIKYASESMSGIPSRFSGSGSGTDFTLSINTVESEDIADYYCQQSHSWPFTFGSGTNLEVK
IC50 [1]: 244 nM | IC50 [2]: 394 nM | IC50 [3]: 2900 nM | IC50 [4]: 0.06 nM | IC50 [5]: 101 nM | IC50 [6]: 15.5 nM

B2: Panitumumab (antibody)
chain 1: QVQLQESGPGLVKPSETLSLTCTVSGGSVSSGDYYWTWIRQSPGKGLEWIGHIYYSGNTNYNPSLKSRLTISIDTSKTQFSLKLSSVTAADTAIYYCVRDRVTGAFDIWGQGTMVTVSS
chain 2: DIQMTQSPSSLSASVGDRVTITCQASQDISNYLNWYQQKPGKAPKLLIYDASNLETGVPSRFSGSGSGTDFTFTISSLQPEDIATYFCQHFDHLPLAFGGGTKVEIK
IC50 [7]: 137 nM | IC50 [8]: 1570 nM

B3: Pembrolizumab (antibody)
chain 1: QVQLVQSGVEVKKPGASVKVSCKASGYTFTNYYMYWVRQAPGQGLEWMGGINPSNGGTNFNEKFKNRVTLTTDSSTTTAYMELKSLQFDDTAVYYCARRDYRFDMGFDYWGQGTTVTVSS
chain 2: EIVLTQSPATLSLSPGERATLSCRASKGVSTSGYSYLHWYQQKPGQAPRLLIYLASYLESGVPARFSGSGSGTDFTLTISSLEPEDFAVYYCQHSRDLPLTFGGGTKVEIK
IC50 [9]: 0.44 nM | IC50 [10]: 1960 nM
